Data: patent US20210230266A1 (SINGAPORE HEALTH SERVICES PTE, published 2021)

T1: Human IL-11 (human, UniProt P20809 22-199)
T1 construct: Recombinant human IL-11 (GenScript Cat. No. Z03108-1) or IL-11 secreted by human cells; the mature form is said to have 178 residues; also called recombinant human IL-11; endogenously produced IL-11
T1 sequence: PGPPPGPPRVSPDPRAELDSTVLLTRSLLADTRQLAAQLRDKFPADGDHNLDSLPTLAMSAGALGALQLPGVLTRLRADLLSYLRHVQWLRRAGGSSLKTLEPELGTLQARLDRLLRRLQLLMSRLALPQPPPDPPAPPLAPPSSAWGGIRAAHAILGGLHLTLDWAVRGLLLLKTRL

T2: Mouse IL-11 (mouse, UniProt P47873 22-199, limits assumed)
T2 construct: also called murine IL-11; recombinant murine IL-11
T2 sequence (looked up): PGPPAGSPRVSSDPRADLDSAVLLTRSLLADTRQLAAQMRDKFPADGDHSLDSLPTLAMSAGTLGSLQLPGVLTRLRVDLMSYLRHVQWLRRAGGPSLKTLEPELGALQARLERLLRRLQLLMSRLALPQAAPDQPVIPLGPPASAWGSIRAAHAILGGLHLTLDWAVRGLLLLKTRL


How the values were obtained:
[1] = target: T1, Human IL-11; experiment: ELISA on coated recombinant human IL-11 (100 ng/well), scFv-Fc
Protocol: The light chain shuffled anti-IL-11 antibodies were analysed to determine the EC50 for binding to human IL-11 by ELISA according to standard methods. Briefly, wells of microtiter plates were coated with recombinant human IL-11 (100 ng/well), scFv-Fc comprising the VH and VL domains of the clones were added in a dilution series and antibody binding was detected using a polyclonal antibody detection system.

[2] = target: T1, Human IL-11; experiment: cell-based or functional assay
[3] = target: T1, Human IL-11; experiment: ELISA
Protocol: (§1) The soluble scFv were produced by recombinant expression in E. coli, and analysed for their ability to bind to human IL-11 and murine IL-11 by ELISA. Briefly, the respective antigen was coated to wells of an ELISA plate, the cell culture supernatant containing the respective scFv was added at a 1:2 dilution, and binding was detected.

[4] = target: T2, Mouse IL-11; experiment: ELISA
Protocol: as §1

Row | EC50 [1] | MMP2 production, Experiment 1 (human atrial fibroblasts + TGFB1) [2] | MMP2 production, Experiment 2 (human atrial fibroblasts + TGFB1) [2] | hIL11 - average signal [3] | mIL11 - average signal [4] | Binder
1 | 0.04 µg/mL | 53.9 ng/mL | 48.5 ng/mL | 0.863 | 0.601 | YU112-F05 (antibody) EVQLVQSGGGVVQPGRSLRLSCAASGFTFGSYGMHWVRQAPGKGLEWVAVISYDGSNKYYADSVKGRFTISRDNSKNTLYLQMNSLRAEDTAVYYCAKIGATDPLDYWGQGTLVTVSSGSASAPKLEEGEFSEARVQSALTQPRSVSGSPGQSVTISCTGTSSDVGGYNYVSWYQQHPGKAPKLIIYDVNNRPSGVSNRFSASKSGNTASLTISGLQAEDEADYYCNSYTSGSTWVFGGGTKLTVL
2 | 0.023 µg/mL | 52.5 ng/mL | 40 ng/mL | 0.187 | 0.175 | YU100-B01 (antibody) QVQLVQSGGGVVQPGRSLRLSCAASGFTFSSYGMHWVRQAPGKGLEWVAVISYDGSNKYYADSVKGRFTISRDNSKNTLYLQMNSLRAEDTAVYYCAKIGATDPLDYWGQGTLVTVSSGSASAPKLEEGEFSEARVQSALTQPRSVSGSPGQSVTISCTGTNTDVGAYNYVSWYQQYPGKAPKLIIYDVSKRPSGVPDRFSGSKSGNTASLTISGLQAEDEADYYCCSYAGSYSWVFGGGTKLTVL
3 | 0.018 µg/mL | 50.3 ng/mL | 42.5 ng/mL | 0.418 | 0.723 | YU112-D08 (antibody) QVQLVESGGGVVQPGRSLRLSCAASGFTFSSYGMHWVRQAPGKGLEWVAVISYDGSNKYYADSVEGRFTISRDNSKNTLYLQMNSLRAEDTAVYYCAKIGATDPLDYWGQGTLVTVSSGSASAPKLEEGEFSEARVQSALTQPRSVSGSPGQSVTISCTGTISDVGGYNYVSWYQQHPGKAPKLMIYDVTKRPSGVPDRFSGSKSGNTASLTISGLQAEDEAGYYCSSYAGSYTWVFGGGTELTVL
4 | 0.017 µg/mL | 55 ng/mL | 47.8 ng/mL | 0.664 | 0.762 | YU112-G06 (antibody) QVQLQESGGGVVQPGRSLRLSCAASGFTFSSYGMHWVRQAPGKGLEWVAVISYDGSNKYYADSVKGRFTISRDNSKNTLYLQMNSLRAEDTAVYYCAKIGATDPLDYWGQGTLVTVSSGSASAPKLEEGEFSEARVQSALTQPRSVSGSPGQSVTISCTGTISDVGGYNYVSWYQQHPGKAPKLMIYDVTKRRSGVPDRFSGSKSGNTASLTISGLQAEDEAGYYCSSYAGGYTWVFGGGTELTVL
5 | 0.02 µg/mL | 51.6 ng/mL | 45.7 ng/mL | 0.333 | 0.372 | YU100-A11 (antibody) EVQLQQSGGGVVQPGRSLRLSCAASGFTFSSYGMHWVRQAPGKGLEWVAVISYDGSNKYYADSVKGRFTISRDNSKNTLYLQMNSLRAEDTAVYYCAKIGATDPLDYWGQGTLVTVSSGSASAPKLEEGEFSEARVQSALTQPRSVSGSPGQSVTISCTGTSSDVGGYNYVSWYQQHPGKAPKLMIYDVSKRPSGVPDRFSGSKSGNTASLTISGLQAEDEADYYCCSYAGSYTWVFGGGTKLTVL
6 | 0.023 µg/mL | 59.5 ng/mL | 50.4 ng/mL | 0.32 | 0.388 | YU100-A12 (antibody) QVQLVESGGGVVQPGRSLRLSCAASGFTFSSYGMHWVRQAPGKGLEWVAVISYDGSNKYYADSVKGRFTISRDNSKNTLYLQMNSLRAEDTAVYYCAKIGATDPLDYWGQGTLVTVSSGSASAPKLEEGEFSEARVLPVLTQPRSVSGSPGQSVTISCTGTSSDVGGYNYVSWYQQHPGKAPKLMIYDVSKRPSGVPDRFSGSKSGDTASLTISGLQAEDEADYYCSSYAGSYTWVFGGGTKLTVL
7 | 0.033 µg/mL | 47.6 ng/mL | 49.6 ng/mL | 0.209 | 0.404 | YU100-B06 (antibody) QVQLVESGGGVVQPGRSLRLSCAASGFTFSSYGMHWVRQAPGKGLEWVAVISYDGSNKYYADSVKSRFTISRDNSKNTLYLQMNSLRAEDTAVYYCAKIGATDPLDYWGQGTLVTVSSGSASAPKLEEGEFSEARVQSALTQPASVSGSPGQSITISCTGTSSDVGGYNYVSWYQQHPGKAPKLMIYDVSKRPSGVPDRFSGSKSGNTASLTISGLQAEDEADYYCNSYAGSYTWVFGGGTKLTVL
8 | 0.023 µg/mL | 55.9 ng/mL | 47.4 ng/mL | 0.167 | 0.354 | YU100-B07 (antibody) QVQLVESGGGVVQPGRSLRLSCAASGFTFSSYGMHWVRQAPGKGLEWVAVISYDGSNKYYADSVKGRFTISRDNSKNTLYLQMNSLRAEDTAVYYCAKIGATDPLDYWGQGTLVTVSSGSASAPKLEEGEFSEARVQSALTQPRSVSGSPGQSVTMSCTGTSRDVGGYNYVSWYQHHPGKAPKLMIYDVSKRPSGVPDRFSGSKSGNTASLTISELQAEDEADYYCCSYAGSYTWVFGGGTKLTVL
9 | 0.012 µg/mL | 55.2 ng/mL | 50.1 ng/mL | 0.458 | 0.685 | YU112-C05 (antibody) EVQLVESGGGVVQPGRSLRLSCAASGFTFSSYAMHWVRQAPGKGLEWVAVISYDGSNKYYADSVKGRFTISRDNSKNTLYLQMNSLRAEDTAVYYCARIMGYDYGDYDVVDYWGQGTLVTVSSGSASAPKLEEGEFSEARVQSALTQPRSVSGSPGQSVTISCTGTISDVGGYNYVSWYQQHPGKAPKLMIYDVTKRPSGVPDRFSGSKSGNTASLTISGLQAEDEAGYYCSSYAGSYTWVFGGGTELTVL
10 | 0.02 µg/mL | 51.9 ng/mL | 47.7 ng/mL | 1.23 | 1.18 | YU112-H01 (antibody) QVQLVESGGGVVQPGRSLRLSCAASGFTFGSYGMHWVRQAPGKGLEWVAVISYDGSNKYYADSVKGRFTISRDNSKNTLYLQMNSLRAEDTAVYYCAKGSYYFDYWGQGTLVTVSSGSASAPKLEEGEFSEARVETTLTQSPGTLSLSPGERATLSCRASQSVSSSYLAWYQQKPGQAPRLLIYGASSRATGIPDRFSGSGSGTDFTLTISSLQPDDFATYYCQQSYSTPTWTFGQGTKVEIK
11 | 0.023 µg/mL | 52.1 ng/mL | 50.1 ng/mL | 0.443 | 0.54 | YU100-A10 (antibody) EVQLVESGGGVVQPGRSLRLSCAASGFTFSSYGMHWVRQAPGKGLEWVAVISYDGSNKYYADSVKGRFTISRDNSKNTLYLQMNSLRAEDTAVYYCAKIGATDPLDYWGQGTLVTVSSGSASAPKLEEGEFSEARVLPVLTQPASVSGSPGQSITISCTGTSSDVGAYNYVSWYQQHPGKAPELMIYDVSNRPSGVSNRFSGSKSGNTASLTISGLQPEDEADYYCSSFTTSIAWVFGGGTKLTVL
12 | 0.02 µg/mL | 65.3 ng/mL | 58 ng/mL | 0.606 | 0.785 | YU112-H02 (antibody) QVQLVESGGGVVQPGRSLRLSCAASGFTFSSYGMHWVRQAPGKGLEWVAVISYDGSNKYYADSVKGRFTISRDNSKNTLYLQMNSLRAEDTAVYYCAKLSGPNGVDYWGQGTLVTVSSGSASAPKLEEGEFSEARVQPVLTQPRSVSGSPGQSVTISCTGTSSDVGGYNYVSWYQQHPGKAPKVMIYDVSKRPSGVPDRFSGSKSGNTASLTISGLQAEDEADYYCCSYAGSYTWVFGGGTKLTVL
13 | 0.025 µg/mL | 47.3 ng/mL | 46.8 ng/mL | 0.227 | 0.321 | YU100-B03 (antibody) QVQLVQSGGGVVQPGRSLRLSCAASGFTFSSYGMHWVRQAPGKGLEWVAVISYDGSNKYYADSVKGRFTISRDNSKNTLYLQMNSLRAEDTAVYYCAKIGATDPLDYWGQGTLVTVSSGSASAPKLEEGEFSEARVQSVLTQPRSVSGSPGRSVTISCTGTSSDVGGYNYVSWYQQHPGKAPKLTLYDVVKRPSGVPDRYSGSKSGNTASLTISGLQAEDEADYYCCSYAGGYTWVFGGGTKVTVV
